Laboratory results taken from PMC7538599.

Target: GltPh, archaeal homolog of excitatory amino acid transporters from Pyrococcus horikoshii (Pyrococcus horikoshii) (UniProt O59010)
Assay: high-speed atomic force microscopy (HS-AFM) imaging; purified GltPh reconstituted in DOPC/DOPE/DOPS 8:1:1 membranes, spread on mica, imaged in buffer solution in amplitude modulation mode; unlabeled protein

GltPh, archaeal homolog of excitatory amino acid transporters from Pyrococcus horikoshii (from UniProt O59010 1-425) (natural protein)
stoichiometry N: 3
